Assay results reported in patent US20150210768A1, “Methods and Compounds for Preventing, Treating and Diagnosing an Inflammatory Condition” (Westfaelische Wilhelms-Universitaet Muenster, priority 2012, published 2015).
Changes are numbered by the printed parent chain. Numbers in names are those of the source.

Tests used:
TLR4/MD2 [1] = target: T1, TLR4/MD2 (Homo sapiens, UniProt O00206); assay: Immunoprecipitation of peptides on bead-coupled TLR4/MD2, eluates analysed by MALDI-TOF mass spectrometry; format: binding; parameters: purchased R&D SYSTEMS; settings: bead-coupled his-tagged rhTLR4/MD2, 1 mM Calcium, 3 h at 4° C.; MALDI-TOF detection; FIG. 3B, 4, 5
Procedure: Anti-His antibody (5 μL, 0.5 mg/mL, Invivogen) and his-tagged rhTLR4/MD2 (5 μL, 1 mg/mL, carrier free, R&D SYSTEMS) were mixed and coupled to Protein A/G Agarose (50 μl, Pierce, Thermo Scientific). Trypsin digested peptides of S100A9 were added for 3 h at 4° C. in the presence of 1 mM Calcium. After washing of the beads in HBS/1 mM Ca-buffer for three times bound peptidic fragments were eluted by addition of 10 mM TRIS/2 mM EDTA-buffer and analysed by ESI-QIT- and MALDI-TOF-mass spectrometry. Identical experiments were performed to analyze the binding of the chemical synthesized peptides of S100A9 (aa63-79), S100A8 (aa55-71) and the corresponding control peptides aa63-79 AS and aa55-71 A3.

human monocytes = assay: Stimulation of human monocytes, TNFα release quantified by ELISA; format: cell-based; settings: for activation of monocytes (TNFα released into the culture medium): human monocytes stimulated for four hours, TNFα by ELISA, FIG. 1; for effect of mutation on function of the S100A9 homodimer: purified mutant S100A9 proteins, alanine exchange, binding to and activation of TLR4
Description: Using standard techniques known in the art, the inventors expressed the individual human proteins S100A8 and S100A9 in recombinant form, and purified them. After generating homodimers and heterodimers, they analysed the properties of the complexes. FIG. 1 illustrates the stimulation of human monocytes for four hours with the indicated concentrations of (A) recombinant human S100A8, recombinant human S100A9 or human S100A8/S100A9, and (B) recombinant human S100A8/S100A9, recombinant human S100A8/S100A9 (N69A) or S100A8/S100A9 (E78A). TNFα released into the culture medium was quantified by means of ELISA.
Monocytes were isolated from human buffy coats by Ficoll-Paque and subsequent Percoll density centrifugation (Pharmacia, Freiburg, Germany) Cells were cultured in Teflon bags (Biofolie 25; Heraeus Instruments, Hanau, Germany) using McCoy's 5a medium supplemented with 15% fetal calf serum for 1 day before stimulation. Monocytes were incubated for 4 hours with different dosis of hS100A8, hS100A9, hS100A8/S100A9 or the modified proteins as indicated in the figures and TNF-α concentrations in supernatants were determined by ELISA (OptEIA, BD Biosciences, Germany).
Release of cytokine TNF-α was measured in the culture supernatants by ELISA (OptEIA, BD Biosciences). […]

his-tagged rhTLR4/MD2 [2] = target: T2, his-tagged rhTLR4/MD2 (human, UniProt O00206 24-631; Q9Y6Y9 19-160); assay: modified S100A9 ELISA, TLR4/MD2 coated on the plate, 2 ug/ml S100A9 protein, absorbance at 450 nm (FIG. 6C)
T2 construct: Bought recombinant human complex (carrier free, R&D SYSTEMS), his-tagged; In the pull-down it was captured by anti-His antibody on Protein A/G agarose; in the ELISA it was coated on the plate; also called TLR4/MD2 complex; TRLR4/MD2
Procedure: (§1) Binding of S100A9 proteins to TLR4/MD2 was analysed by a modified S100A9-ELISA. Briefly, TLR4/MD2 was coupled to the wells of a 96-well plate and served as capturing molecule. After blocking of the unspecific binding sites by PBS/5% skim milk powder plates were washed three times. S100A9-wt or mutant S100A9 proteins were added at a concentration of 2 μg/ml each in the presence and absence of 100 μM Calcium and incubated for two hours at room temperature. Unbound S100A9 was removed by washing the plates for three times followed by the addition of a primary anti-S100A9-antibody (1 μg/ml, polyclonal, rabbit). After a washing step the secondary anti-rabbit-IgG-antibody coupled to HRP (1 μg/ml from Cell Signalling) was added. TMB was used as substrate for HRP to quantify binding by absorbance readings at 450 nm in an ELISA reader (Anthos Mirkosysteme).

[3] = test system: (S100A8/S100A9)2 tetramers; assay: Formation of (S100A8/S100A9)2 tetramers after site directed mutagenesis; parameters: species or system human; settings: mutation in second calcium binding EF hand of S100A9
Procedure: For the expression of recombinant (rec) proteins without additional peptide sequences, the cDNAs from wt S100A8, wt S100A9 and the S100A9 EF-hand mutants were cloned into the pET11/20 vector [50-NdeI; 30-BamHI]. […] Bacteria were grown at 37° C. in 2×YT for 24 h. Afterwards bacteria were harvested, lysed and the inclusion bodies (IB) prepared. The IB pellet was dissolved in 8 M urea buffer and to establish proper refolding samples were adjusted to pH 2.0-2.5 first by adding hydrochloric acid. After 60 min incubation at room temperature, samples were stepwise dialyzed to get adapted to pH 7.4 for refolding in the presence of 2 mM DTT. After centrifugation (10 min, 60,000 g, 4° C.) to pellet aggregated material, samples were further dialyzed and applied to anion exchange column and gel filtration chromatography. To prepare heterodimeric complexes the recombinant proteins were mixed 1:1 in equimolar concentrations first. Samples were stored as stock solutions at −20° C. Correct refolding and complex formation was assessed by SDS-PAGE, CD spectroscopy, MALDI-MS and ESI-MS.

TLR4/MD2 [4] = target: T1, TLR4/MD2; assay: Binding of S100A9-wt and mutant proteins to TLR4/MD2 (modified S100A9-ELISA); settings: 2 μg/ml protein, plate-coupled TLR4/MD2, absorbance 450 nm; FIG. 6B, 6C
Procedure: as §1

his-tagged rhTLR4/MD2 [5] = target: T2, his-tagged rhTLR4/MD2; assay: modified S100A9 ELISA, TLR4/MD2 coated on the plate, 2 ug/ml S100A9 protein, absorbance at 450 nm
Procedure: as §1

T1 sequence (O00206 24-631 limits assumed): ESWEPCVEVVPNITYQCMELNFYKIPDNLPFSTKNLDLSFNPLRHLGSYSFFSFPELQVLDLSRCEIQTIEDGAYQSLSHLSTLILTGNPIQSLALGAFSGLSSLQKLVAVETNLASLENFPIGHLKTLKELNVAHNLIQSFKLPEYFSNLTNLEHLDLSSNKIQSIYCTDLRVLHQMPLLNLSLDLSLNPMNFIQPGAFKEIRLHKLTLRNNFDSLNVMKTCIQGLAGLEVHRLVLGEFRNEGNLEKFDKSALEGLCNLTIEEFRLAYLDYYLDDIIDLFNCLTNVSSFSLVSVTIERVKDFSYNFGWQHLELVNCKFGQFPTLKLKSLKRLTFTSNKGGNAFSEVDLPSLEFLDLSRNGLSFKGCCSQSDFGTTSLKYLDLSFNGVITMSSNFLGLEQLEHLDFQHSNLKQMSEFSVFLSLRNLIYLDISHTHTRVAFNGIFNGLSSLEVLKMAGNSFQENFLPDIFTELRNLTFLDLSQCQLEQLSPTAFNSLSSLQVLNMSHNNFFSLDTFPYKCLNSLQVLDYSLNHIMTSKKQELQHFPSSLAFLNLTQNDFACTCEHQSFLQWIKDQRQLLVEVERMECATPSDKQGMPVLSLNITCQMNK
T1 sequence (Q9Y6Y9 17-160 partner limits assumed): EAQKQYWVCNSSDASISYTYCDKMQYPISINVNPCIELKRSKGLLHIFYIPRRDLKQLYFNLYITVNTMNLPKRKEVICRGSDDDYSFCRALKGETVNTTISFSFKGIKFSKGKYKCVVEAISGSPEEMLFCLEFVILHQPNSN
T2 sequence (O00206 24-631 limits assumed, chain 1 of 2): as the sequence (O00206 24-631 limits assumed) above
T2 sequence (Q9Y6Y9 19-160 limits assumed, chain 2 of 2): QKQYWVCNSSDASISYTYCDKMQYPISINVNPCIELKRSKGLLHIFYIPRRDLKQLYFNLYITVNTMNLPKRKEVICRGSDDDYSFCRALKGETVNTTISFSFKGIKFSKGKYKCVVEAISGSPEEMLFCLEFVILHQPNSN

55-71: synthetic peptide, positions 55-71 of human S100A8, complete C-terminal EF hand, FKELDINTDGAVNFQEF
binding to TLR4/MD2 (TLR4/MD2 [1]): able to bind to TLR4/MD2

63-79 A5: control peptide 63-79 of S100A9 with E64A, D65A, K72A, Q73A and E77A exchanged to alanine (MAALDTNADAALSFAEF) [reference compound]
binding to TLR4/MD2 (TLR4/MD2 [1]): no binding could be detected

63-79: synthetic peptide, positions 63-79 of S100A9, complete C-terminal EF hand, MEDLDTNADKQLSFEEF
binding to TLR4/MD2 (TLR4/MD2 [1]): able to bind to TLR4/MD2

No. 15: tryptic peptide of human S100A9, amino acid positions 73-85 (QLSFEEFIMLMAR, SEQ ID NO: 3) (QLSFEEFIMLMARTTT)
binding to TLR4/MD2 (TLR4/MD2 [1]): specific interaction with TLR4/MD2

B1: S100A8: recombinant human protein S100A8 (Uniprot P05109), used as homodimer (protein)
chain: MLTELEKALNSIIDVYHKYSLIKGNFHAVYRDDLKKLLETECPQYIRKKGADVWFKELDINTDGAVNFQEFLILVIKMGVAAHKKSHEESHKE
activation of monocytes (TNFα released into the culture medium) (human monocytes): induce a particular strong, pro-inflammatory response in monocytes
activation of monocytes (TNFα released into the culture medium) (human monocytes; listed as homodimers of S100A8): induce this response

B2: S100A9 double mutant with alanine at both D65 and Q73 (ligand)
chain: MTCKMSQLERNIETIINTFHQYSVKLGHPDTLNQGEFKELVRKDLQNFLKKENKNEKVIEHIMEALDTNADKALSFEEFIMLMARLTWASHEKMHEGDEGPGHHHKPGLGEGTP
notes: Purified recombinant double mutant of human S100A9, homodimer
binding result (his-tagged rhTLR4/MD2 [2]): binds

B3: heterotetrameric complex between S100A8 and S100A9: complex of recombinant human S100A8 and S100A9, heterotetramer in presence of calcium (protein)
chain 1: B1 chain
chain 2: B2 chain with A65D, A73Q
activation of monocytes (TNFα released into the culture medium) (human monocytes): does not induce an inflammatory response in monocytes
activation of monocytes (TNFα released into the culture medium) (human monocytes; listed as heterotetrameric complex of s100A8 and S100A9): did not show activating properties that would be comparable to the individual components

B4: S100A8/S100A9 (N69A): recombinant human S100A8/S100A9 with S100A9 EF hand II mutation N69A, prevents tetramer formation (protein)
chain 1: B1 chain
chain 2: B2 chain with A65D, N69A, A73Q
activation of monocytes (TNFα released into the culture medium) (human monocytes): activation of monocytes that is comparable to the activation caused by homodimers
tetramer formation [3]: inhibition of tetramer formation

B5: S100A9: recombinant human protein S100A9 (Uniprot P06702), used as homodimer (protein)
chain: B2 chain with A65D, A73Q
activation of monocytes (TNFα released into the culture medium) (human monocytes): induce a particular strong, pro-inflammatory response in monocytes
activation of monocytes (TNFα released into the culture medium) (human monocytes; listed as homodimers of S100A9): induce this response

B6: S100A9R85A (ligand)
chain: B2 chain with A65D, A73Q, R85A
notes: Purified recombinant mutant of human S100A9, homodimer; also called S100A9 R85A mutant
binding to the receptor compared to non-mutated protein (S100A9 wt) (TLR4/MD2 [4]): not significantly different from the wild type protein
effect of mutation on function of the S100A9 homodimer (human monocytes): hardly any effect
binding result (his-tagged rhTLR4/MD2 [5]): binds

B7: S100A9E64A (ligand)
chain: B2 chain with E64A, A65D, A73Q
notes: Purified recombinant mutant of human S100A9, homodimer; also called S100A9 E64A mutant
binding to the receptor compared to non-mutated protein (S100A9 wt) (TLR4/MD2 [4]): weaker binding
effect of mutation on function of the S100A9 homodimer (human monocytes): loss of function
binding result (his-tagged rhTLR4/MD2 [5]): binds

B8: S100A9D65A (ligand)
chain: B2 chain with A73Q
notes: Purified recombinant mutant of human S100A9, homodimer; also called S100A9 D65A mutant
binding to the receptor compared to non-mutated protein (S100A9 wt) (TLR4/MD2 [4]): weaker binding
effect of mutation on function of the S100A9 homodimer (human monocytes): loss of function
binding result (his-tagged rhTLR4/MD2 [5]): binds

B9: S100A9 double mutant with alanine at both E64 and D65 (ligand)
chain: B2 chain with E64A, A73Q
notes: as for B2
binding result (his-tagged rhTLR4/MD2 [2]): binds

B10: S100A9K72A (ligand)
chain: B2 chain with A65D, K72A, A73Q
notes: Purified recombinant mutant of human S100A9, homodimer; also called S100A9 K72A mutant
binding to the receptor compared to non-mutated protein (S100A9 wt) (TLR4/MD2 [4]): not significantly different from the wild type protein
effect of mutation on function of the S100A9 homodimer (human monocytes): hardly any effect
binding result (his-tagged rhTLR4/MD2 [5]): binds

B11: S100A9E77A (ligand)
chain: B2 chain with A65D, A73Q, E77A
notes: Purified recombinant mutant of human S100A9, homodimer; also called S100A9 E77A mutant
binding to the receptor compared to non-mutated protein (S100A9 wt) (TLR4/MD2 [4]): weaker binding
effect of mutation on function of the S100A9 homodimer (human monocytes): loss of function
binding result (his-tagged rhTLR4/MD2 [5]): binds

B12: S100A9 double mutant with alanine at both E64 and Q73 (ligand)
chain: B2 chain with E64A, A65D
notes: as for B2
binding result (his-tagged rhTLR4/MD2 [2]): binds

B13: S100A9 double mutant with alanine at both Q73 and E77 (ligand)
chain: B2 chain with A65D, E77A
notes: as for B2
binding result (his-tagged rhTLR4/MD2 [2]): binds

B14: S100A9Q73A (ligand)
chain: B2 chain with A65D
notes: Purified recombinant mutant of human S100A9, homodimer; also called S100A9 Q73A mutant
binding to the receptor compared to non-mutated protein (S100A9 wt) (TLR4/MD2 [4]): weaker binding
effect of mutation on function of the S100A9 homodimer (human monocytes): loss of function
binding result (his-tagged rhTLR4/MD2 [5]): binds
